According to patent US20210261626A1 (DONALDSON, published 2021):

Molecular target: human serum albumin (human, UniProt P02768 25-609)
Experiment: phase separation pull-down with 0.6 M NaCl and centrifugation, supernatant and pellet on SDS-PAGE

Sequence of human serum albumin (P02768 25-609 limits assumed): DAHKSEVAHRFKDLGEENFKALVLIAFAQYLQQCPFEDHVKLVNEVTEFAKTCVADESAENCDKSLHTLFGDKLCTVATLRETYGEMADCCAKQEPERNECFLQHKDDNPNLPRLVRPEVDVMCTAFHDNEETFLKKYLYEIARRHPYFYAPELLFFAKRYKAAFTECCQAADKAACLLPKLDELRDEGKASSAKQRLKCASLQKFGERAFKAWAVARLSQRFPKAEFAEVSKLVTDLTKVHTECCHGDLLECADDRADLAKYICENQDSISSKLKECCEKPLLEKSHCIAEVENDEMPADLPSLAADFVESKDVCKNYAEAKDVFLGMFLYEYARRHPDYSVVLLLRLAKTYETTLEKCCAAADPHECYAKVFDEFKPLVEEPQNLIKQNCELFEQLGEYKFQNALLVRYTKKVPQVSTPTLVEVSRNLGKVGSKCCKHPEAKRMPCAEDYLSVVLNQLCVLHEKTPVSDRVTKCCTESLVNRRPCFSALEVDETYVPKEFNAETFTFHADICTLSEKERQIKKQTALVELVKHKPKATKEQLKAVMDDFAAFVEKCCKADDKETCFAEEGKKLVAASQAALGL

B1: ELP1,80-CapG (designed binder)
chain: MSKGPGVGVPGLGVPGVGVPGLGVPGVGVPGVGVPGLGVPGVGVPGLGVPGVGVPVGVPGLGVPGVGVPGLGVPGVGVPGVGVPGLGVPGVGVPGLGVPGVGVPVGVPGLGVPGVGVPGLGVPGVGVPGVGVPGLGVPGVGVPGLGVPGVGVPVGVPGLGVPGVGVPGLGVPGVGVPGVGVPGLGVPGVGVPGLGVPGVGVPVGVPGLGVPGVGVPGLGVPGVGVPGVGVPGLGVPGVGVPGLGVPGVGVPVGVPGLGVPGVGVPGLGVPGVGVPGVGVPGLGVPGVGVPGLGVPGVGVPVGVPGLGVPGVGVPGLGVPGVGVPGVGVPGLGVPGVGVPGLGVPGVGVPVGVPGLGVPGVGVPGLGVPGVGVPGVGVPGLGVPGVGVPGLGVPGVGVPGTYKLILNGKTLKGETTTEAVDAATAEKVFKQYANDNGVDGEWTYDDATKTFTVTEG
notes: Expressed in E. coli; also called fusion comprised of an optimal ELP and a Protein G domain
  binding result: no binding
